# Laboratory results from patent US20100076060.
# Tests used:
# [1] = biological target: T1, 4-1BB (CD137) extracellular portion (Mus musculus) (UniProt P20334); experiment: filter; conditions: 2'-F pyrimidines
# T1 sequence: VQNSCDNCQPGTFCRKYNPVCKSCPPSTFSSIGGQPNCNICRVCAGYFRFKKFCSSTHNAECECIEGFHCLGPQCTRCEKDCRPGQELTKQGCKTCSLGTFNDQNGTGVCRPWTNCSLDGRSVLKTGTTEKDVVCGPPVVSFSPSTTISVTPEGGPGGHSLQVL
# [2] = biological target: 4-1BB (CD137) extracellular portion (Homo sapiens) (UniProt Q07011); experiment: filter; conditions: 2'-F pyrimidines; alternating mouse/human selection pool
# Chain of 4-1BB (CD137) extracellular portion (Homo sapiens) (Q07011 24-186): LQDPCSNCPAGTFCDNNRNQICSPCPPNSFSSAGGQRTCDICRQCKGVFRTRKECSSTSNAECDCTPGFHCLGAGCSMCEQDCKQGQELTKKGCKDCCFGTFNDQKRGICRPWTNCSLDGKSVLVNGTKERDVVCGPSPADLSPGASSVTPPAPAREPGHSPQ
Sequence,Kd ([1]; alternating mouse/human selection pool),Kd [2],Kd ([1]; round 12 pool)
GGGAGAGAGGAAGAGGGAUGGGNNNNNNNNNNNNNNNNNNNNNNNNNNNNNNNNNNNNNNNNCAUAACCCAGAGGUCGAUAGUACUGGAUCCCCCC [mouse/human 4-1BB alternating selection final pool],200 nM,23 nM,–
GGGAGAGAGGAAGAGGGAUGGGNNNNNNNNNNNNNNNNNNNNNNNNNNNNNNNNNNNNNNNNCAUAACCCAGAGGUCGAUAGUACUGGAUCCCCCC [mouse 4-1BB selection round 12 pool],–,–,50 nM
